From patent publication US20140196168A1 (SWETREE TECHNOLOGIES, published 2014) come the findings set out here.

This test addresses T1, Gal4-DNA Binding Domain fused to the Arabidopsis thaliana Med25 551-680 amino acid domain (bait, pGBKT7-Med25 … (Arabidopsis thaliana)).
T1 construct: Expressed in yeast AH109 as a two-hybrid bait; also called G4-DBD-Med25; Med25 bait construct
Put plainly: yeast two-hybrid with deletion derivatives.

B1: ZFHD1 amino acids 1-132 (two-hybrid derivative, Gal4 activation domain fusion) (other, Arabidopsis thaliana, UniProt Q9SEZ1 1-132, looked up, not shown: large carriers)
chain: MDLSSKPQQQLLNSLPIAGELTVTGEMGVCYKECLKNHAANLGGHALDGCGEFMPSPTATSTDPSSLRCAACGCHRNFHRRDPSENLNFLTAPPISSPSGTESPPSRHVSSPVPCSYYTSAPPHHVILSLSS
As for B1, the binding result is on record as “binds”.

B2: DREB2A amino acids 169-254 (two-hybrid derivative, Gal4 activation domain fusion) (other, Arabidopsis thaliana, UniProt O82132 169-254, looked up, not shown: large carriers)
chain: CESKPFSGGVEPMYCLENGAEEMKRGVKADKHWLSEFEHNYWSDILKEKEKQKEQGIVETCQQQQQDSLSVADYGWPNDVDQSHLD
B2: the binding result is “binds”.
